Test in all cases: SPR
Test [1] addresses T1, TGF-β type II receptor extracellular domain (UniProt P37173 23-166).
In test [2] the target is T1, TGF-β type II receptor extracellular …. The source holds these as a separate data set.
The target is the same in test [3]. This is another data set of the same source.

As usually defined, the Kd is the free concentration of one partner at which half of the binding sites on the other are occupied at equilibrium, for simple one-to-one binding.

Read-outs that look alike come from different tables or passages of the source.

T1 sequence (P37173 23-166): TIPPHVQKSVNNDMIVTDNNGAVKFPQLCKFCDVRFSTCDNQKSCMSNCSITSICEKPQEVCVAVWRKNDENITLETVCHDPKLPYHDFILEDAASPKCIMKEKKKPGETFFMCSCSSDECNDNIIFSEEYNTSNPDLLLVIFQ

B1: Transforming growth factor β2 (TGF-β2), recombinant human (ligand, UniProt P61812 303-414, looked up)
chain: ALDAAYCFRNVQDNCCLRPLYIDFKRDLGWKWIHEPKGYNANFCAGACPYLWSSDTQHSRVLSLYNTINPEASASPCCVSQDLEPLTILYYIGKTPKIEQLSNMIVKSCKCS
modifications: biotinylated for SPR (EZ-Link Amine-PEG3-biotin with EDC/Sulfo-NHS; for the experiments of Table S1 sulfo-NHS-LC-LC-Biotin)
Turning to B1, the Kd in test [1] was found to be 9.4 ± 2.2 µM; in test [2], 4.6 ± 0.7 µM; in test [3], 2.9 ± 1.1 µM.

(Values after article PMC5551644 (Biochemistry, 2016).)
